# Data taken from the supplement of paper PMC7877785.
# ± gives the uncertainty stated by the source.
# Assay: self-splicing fitness, log relative to wild type (ln ratio); higher = more splicing; Tetrahymena group I intron in knt gene, E. coli kanamycin selection, DiMSum; sequences stand for … in CUCUCU…GGAGGGAAAAGUUAUCAGGCAUGCACCUGGUAGCUAGUCUUUAAACCAAUAGAUUGCAUCGGUUUAAAAGGCAAGACCGUCAAAUUGCGGGAAAGGGGUCAACAGCCGUUCAGUACCAAGUCUCAGGGGAAACUUUGAGAUGGCCUUGCAAAGGGUAUGGUAAUAAGCUGACGGACAUGGUCCUAACCACGCAGCCAAGUCCUAAGUCAACAGAUCUUCUGUUGAUAUGGAUGCAGUUCACAGACUAAAUGUCGGUCGGGGAAGAUGUAUUCUUCUCAUAAGAUAUAGUCGGACCUCUCCUUAAUGGGAGCUAGCGGAUGAAGUGAUGCAACACUGGAGCCGCUGGGAACUAAUUUGUAUGCGAAAGUAUAUUGAUUAGUUUUGGAGUACUCGUGGUCG
# How it was run: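 Library with all eight P1ex-region intron nucleotides randomised, intron inside the knt kanamycin-resistance gene on pET-22b(+), in E. coli BL21(DE3). Cells grew overnight at 37°C or 30°C on LB agar with or without 25 μg/mL kanamycin (plus 100 μg/mL carbenicillin, 50 μM IPTG, 0.2% rhamnose), in six replicate transformations. Pooled colonies were amplicon-sequenced on Illumina HiSeq 2500. DiMSum fitness is the error-weighted combination of wild-type-normalised replicate fold changes, kanamycin versus none.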
Sequence,self-splicing fitness (ln) (30 °C),self-splicing fitness (ln) (37 °C)
CAAAAGCAAUAUUACGCUGU,-3.49 ± 0.25,-1.73 ± 0.18
CAAAAGCAAUAUUACGGAGA,-2.88 ± 0.28,-3.43 ± 0.3
CAAAAGCAAUAUUACGGCGA,-1.16 ± 0.11,-0.502 ± 0.098
CAAAAGCAAUAUUACGGUUA,-1.72 ± 0.1,-0.514 ± 0.083
CAAAAGCAAUAUUACGGUUG,-1.66 ± 0.11,-1.17 ± 0.14
CAAAAGCAAUAUUACGUAGU,-3.12 ± 0.12,-2.76 ± 0.18
CAAAAGCAAUAUUACGUAUA,-3 ± 0.15,-2.38 ± 0.17
CAAAAGCAAUAUUACGUCGA,-2.16 ± 0.086,-1.06 ± 0.084
CAAAAGCAAUAUUACGUGCC,-2.99 ± 0.24,-1.41 ± 0.23
CAACAGCAAUAUUACGAAGC,-3.45 ± 0.13,-2.74 ± 0.15
CAACAGCAAUAUUACGAAUA,-3.74 ± 0.28,-1.83 ± 0.2
CAACAGCAAUAUUACGACAA,-3.37 ± 0.21,-2.29 ± 0.14
CAACAGCAAUAUUACGACCC,-1.31 ± 0.13,-2.62 ± 0.33
CAACAGCAAUAUUACGAGUA,-1.85 ± 0.1,-1.04 ± 0.082
CAACAGCAAUAUUACGCAAC,-3.4 ± 0.23,-2.53 ± 0.33
CAACAGCAAUAUUACGCACG,-0.598 ± 0.067,0.246 ± 0.094
CAACAGCAAUAUUACGCAUC,-3.3 ± 0.16,-2.29 ± 0.14
CAACAGCAAUAUUACGCCAC,-3.26 ± 0.37,-2.39 ± 0.31
CAACAGCAAUAUUACGCCUA,-2.08 ± 0.12,-1.31 ± 0.11
CAACAGCAAUAUUACGCGUC,-3.55 ± 0.22,-1.98 ± 0.13
CAACAGCAAUAUUACGCUGC,-3.4 ± 0.23,-2.21 ± 0.36
CAACAGCAAUAUUACGCUUA,-2.13 ± 0.12,-0.653 ± 0.09
CAACAGCAAUAUUACGGAAC,-4.2 ± 0.28,-3.48 ± 0.23
CAACAGCAAUAUUACGGCCG,0.255 ± 0.072,0.563 ± 0.1

Sequence,self-splicing fitness (ln) (30 °C),self-splicing fitness (ln) (37 °C)
CAACAGCAAUAUUACGGGAA,-2.48 ± 0.16,-2.04 ± 0.14
CAACAGCAAUAUUACGGGGC,-3.71 ± 0.16,-3.4 ± 0.17
CAACAGCAAUAUUACGUACU,-1.89 ± 0.076,-0.917 ± 0.097
CAACAGCAAUAUUACGUAUG,-2.88 ± 0.12,-1.35 ± 0.1
CAACAGCAAUAUUACGUCCU,-2.08 ± 0.071,-1.6 ± 0.094
CAAGAGCAAUAUUACGAAGG,-2.06 ± 0.17,-0.821 ± 0.19
CAAGAGCAAUAUUACGACGG,-0.504 ± 0.087,0.00208 ± 0.14
CAAGAGCAAUAUUACGAGAG,-3.74 ± 0.16,-1.83 ± 0.13
CAAGAGCAAUAUUACGAUAA,-3.21 ± 0.22,-1.79 ± 0.18
CAAGAGCAAUAUUACGCCAC,-2.38 ± 0.36,
CAAGAGCAAUAUUACGCGAA,-3.05 ± 0.26,-2.98 ± 0.4
CAAGAGCAAUAUUACGGAUA,-2.87 ± 0.23,-2.32 ± 0.29
CAAGAGCAAUAUUACGGCAU,-3.14 ± 0.23,-2.02 ± 0.21
CAAGAGCAAUAUUACGGCCA,-2.08 ± 0.38,-2.62 ± 0.48
CAAGAGCAAUAUUACGGCGG,-0.86 ± 0.069,-0.283 ± 0.094
CAAGAGCAAUAUUACGGCUA,-3.05 ± 0.31,-1.97 ± 0.22
CAAGAGCAAUAUUACGGUGA,-3.01 ± 0.2,-1.88 ± 0.21
CAAGAGCAAUAUUACGUAAG,-0.178 ± 0.084,-0.217 ± 0.12
CAAGAGCAAUAUUACGUAUC,-3.78 ± 0.17,-2.67 ± 0.2
CAAGAGCAAUAUUACGUCAU,-4.3 ± 0.24,-3.57 ± 0.17
CAAGAGCAAUAUUACGUGGG,-3.54 ± 0.21,-2.64 ± 0.19
CAAGAGCAAUAUUACGUGUG,-2.56 ± 0.1,-1.5 ± 0.092
CAAGAGCAAUAUUACGUUAU,-4.08 ± 0.19,-2.78 ± 0.17
CAAGAGCAAUAUUACGUUCG,-1.27 ± 0.089,-0.199 ± 0.11

Sequence,self-splicing fitness (ln) (30 °C),self-splicing fitness (ln) (37 °C)
CAAUAGCAAUAUUACGCACA,-2.3 ± 0.12,-1.4 ± 0.12
CAAUAGCAAUAUUACGCAUA,-2.99 ± 0.18,-2.08 ± 0.18
CAAUAGCAAUAUUACGCAUG,-1.35 ± 0.091,-0.845 ± 0.11
CAAUAGCAAUAUUACGCGAU,-3.99 ± 0.23,-2.92 ± 0.29
CAAUAGCAAUAUUACGCUAG,-2.49 ± 0.15,-1.86 ± 0.19
CAAUAGCAAUAUUACGGAAA,-3.49 ± 0.19,-2.83 ± 0.32
CAAUAGCAAUAUUACGGCUC,-1.08 ± 0.15,-0.901 ± 0.23
CAAUAGCAAUAUUACGGGCU,-3.42 ± 0.16,-1.4 ± 0.12
CAAUAGCAAUAUUACGGGUC,-3.28 ± 0.34,-2.4 ± 0.48
CAAUAGCAAUAUUACGUAAU,-3.35 ± 0.21,-1.92 ± 0.18
CAAUAGCAAUAUUACGUCAG,-1.95 ± 0.066,-1.12 ± 0.07
CAAUAGCAAUAUUACGUGAU,-3.98 ± 0.14,-2.5 ± 0.12
CACAAGCAAUAUUACGAAAC,,-1.91 ± 0.25
CACAAGCAAUAUUACGAACC,-2.66 ± 0.47,-1.98 ± 0.36
CACAAGCAAUAUUACGACUG,-0.95 ± 0.046,0.337 ± 0.064
CACAAGCAAUAUUACGAGGC,-3.54 ± 0.16,-2.87 ± 0.19
CACAAGCAAUAUUACGCCCG,-0.276 ± 0.12,0.193 ± 0.15
CACAAGCAAUAUUACGCCUG,-1.87 ± 0.16,-0.812 ± 0.19
CACAAGCAAUAUUACGGAUU,-3.91 ± 0.2,-2.61 ± 0.2
CACAAGCAAUAUUACGGCCG,-0.104 ± 0.077,0.524 ± 0.1
CACAAGCAAUAUUACGGGUA,-1.26 ± 0.07,-0.601 ± 0.076
CACAAGCAAUAUUACGGGUG,-3.99 ± 0.1,-2.94 ± 0.11
CACAAGCAAUAUUACGGUAU,-3.8 ± 0.14,-2.35 ± 0.12
CACAAGCAAUAUUACGUGAC,-4.87 ± 0.34,-2.77 ± 0.2

Sequence,self-splicing fitness (ln) (30 °C),self-splicing fitness (ln) (37 °C)
CACAAGCAAUAUUACGUGCC,-3.26 ± 0.14,-2.48 ± 0.14
CACAAGCAAUAUUACGUGUA,-3.53 ± 0.13,-1.78 ± 0.093
CACAAGCAAUAUUACGUUUG,-2.89 ± 0.078,-2.14 ± 0.089
CACCAGCAAUAUUACGAAUC,-4.57 ± 0.31,-0.445 ± 0.18
CACCAGCAAUAUUACGAGUC,-4.09 ± 0.19,-1.74 ± 0.14
CACCAGCAAUAUUACGAGUU,-2.42 ± 0.075,-1.65 ± 0.087
CACCAGCAAUAUUACGCAAC,-2.68 ± 0.48,-2.85 ± 0.28
CACCAGCAAUAUUACGCACU,-3.96 ± 0.21,-1.59 ± 0.12
CACCAGCAAUAUUACGCAUG,-1.29 ± 0.062,-0.787 ± 0.07
CACCAGCAAUAUUACGCGCG,-0.00123 ± 0.053,0.499 ± 0.069
CACCAGCAAUAUUACGCGGA,-2.85 ± 0.15,-0.595 ± 0.088
CACCAGCAAUAUUACGCGGC,-2.68 ± 0.21,-2.72 ± 0.29
CACCAGCAAUAUUACGCUAC,-5.01 ± 0.45,-2.1 ± 0.16
CACCAGCAAUAUUACGGAUG,-3.11 ± 0.12,-1.84 ± 0.12
CACCAGCAAUAUUACGGAUU,-2.05 ± 0.055,-1.36 ± 0.085
CACCAGCAAUAUUACGGCGA,-1.62 ± 0.061,-1.23 ± 0.063
CACCAGCAAUAUUACGGCGC,-2.3 ± 0.11,-1.5 ± 0.13
CACCAGCAAUAUUACGUACU,-3.08 ± 0.2,-2.21 ± 0.2
CACCAGCAAUAUUACGUAGU,-3.23 ± 0.075,-1.53 ± 0.079
CACCAGCAAUAUUACGUAUA,-4.42 ± 0.24,-2.33 ± 0.18
CACCAGCAAUAUUACGUCAC,-2.9 ± 0.15,-2.9 ± 0.3
CACCAGCAAUAUUACGUCGC,-3.1 ± 0.12,-2.28 ± 0.17
CACCAGCAAUAUUACGUGCA,-4.11 ± 0.17,-2.56 ± 0.15
